From publication PMC10786891, “Massively parallel profiling of RNA-targeting CRISPR-Cas13d” come the findings set out here.

First the molecules themselves.
T1: EsCas13d, nuclease-dead (Eubacterium siraeum, UniProt B0MS50, R295A;H300A;R849A;H854A)
T1 sequence: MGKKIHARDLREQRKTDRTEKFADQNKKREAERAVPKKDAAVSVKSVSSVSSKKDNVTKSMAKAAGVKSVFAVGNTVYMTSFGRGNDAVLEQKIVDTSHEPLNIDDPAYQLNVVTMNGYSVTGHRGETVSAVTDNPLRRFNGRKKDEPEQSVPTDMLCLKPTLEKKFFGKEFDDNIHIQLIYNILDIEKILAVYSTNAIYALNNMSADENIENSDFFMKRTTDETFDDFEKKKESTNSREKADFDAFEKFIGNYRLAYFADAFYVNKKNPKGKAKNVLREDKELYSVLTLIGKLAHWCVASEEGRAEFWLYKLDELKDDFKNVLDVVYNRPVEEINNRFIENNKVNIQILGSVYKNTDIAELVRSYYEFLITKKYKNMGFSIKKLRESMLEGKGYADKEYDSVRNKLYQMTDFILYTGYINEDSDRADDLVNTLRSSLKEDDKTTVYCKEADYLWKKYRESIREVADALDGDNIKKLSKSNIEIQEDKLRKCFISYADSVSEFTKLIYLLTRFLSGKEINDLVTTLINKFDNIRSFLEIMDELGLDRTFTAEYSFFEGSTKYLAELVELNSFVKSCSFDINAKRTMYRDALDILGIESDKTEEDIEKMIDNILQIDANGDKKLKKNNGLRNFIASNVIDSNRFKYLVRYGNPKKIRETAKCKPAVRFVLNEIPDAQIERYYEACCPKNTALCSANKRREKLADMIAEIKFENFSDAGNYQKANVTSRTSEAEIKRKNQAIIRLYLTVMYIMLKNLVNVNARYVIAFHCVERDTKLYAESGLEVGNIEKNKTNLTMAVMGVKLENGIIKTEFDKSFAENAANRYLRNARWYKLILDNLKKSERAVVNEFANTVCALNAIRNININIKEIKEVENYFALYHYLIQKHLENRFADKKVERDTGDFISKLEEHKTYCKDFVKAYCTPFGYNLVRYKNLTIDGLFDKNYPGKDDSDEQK

B1: target 1 insA 3' of 19,insC 3' of 10 (mixed)
RNA 1: CACCCGUGCAAAAAUGCAGGGGUCUAAAACUGAGCGGAUAACCUCUCUAUGG
RNA 2: GGGAAUGGAUCCACAUCUACGAAUUCGUACCAUAAGAGAGGUUCAUCCGCUCACCGAGAUCGGAAGAGCACACGU
B2: target 1 C7A,A16G (mixed)
RNA 1: CACCCGUGCAAAAAUGCAGGGGUCUAAAACUGAGCGGAUAACCUCUCUAUGG
RNA 2: GGGAAUGGAUCCACAUCUACGAAUUCGUACCAUAGGGAGGUUAUACGCUCACCGAGAUCGGAAGAGCACACGU
B3: target 1 U3A,C4A (mixed)
RNA 1: CACCCGUGCAAAAAUGCAGGGGUCUAAAACUGAGCGGAUAACCUCUCUAUGG
RNA 2: GGGAAUGGAUCCACAUCUACGAAUUCGUACCAUAGAGAGGUUAUCCGAACACCGAGAUCGGAAGAGCACACGU
B4: target 1 insU 3' of 15,insG 3' of 10 (mixed)
RNA 1: CACCCGUGCAAAAAUGCAGGGGUCUAAAACUGAGCGGAUAACCUCUCUAUGG
RNA 2: GGGAAUGGAUCCACAUCUACGAAUUCGUACCAUAGAGUAGGUUGAUCCGCUCACCGAGAUCGGAAGAGCACACGU
B5: target 2 MT 5'PFS UAC 3'PFS AUG (mixed)
RNA 1: CACCCGUGCAAAAUUGCAGGGGUCUAAAACCUUCUCCAAAUUGUUUCAUCCU
RNA 2: GGGAAUGGAUCCACAUCUACGAAUUCUACAGGAUGAAACAAUUUGGAGAAGAUGAGAUCGGAAGAGCACACGU
B6: target 2 MT 5'PFS UCA 3'PFS AAC (mixed)
RNA 1: CACCCGUGCAAAAUUGCAGGGGUCUAAAACCUUCUCCAAAUUGUUUCAUCCU
RNA 2: GGGAAUGGAUCCACAUCUACGAAUUCUCAAGGAUGAAACAAUUUGGAGAAGAACAGAUCGGAAGAGCACACGU
B7: target 2 MT 5'PFS AAA 3'PFS CCA (mixed)
RNA 1: CACCCGUGCAAAAUUGCAGGGGUCUAAAACCUUCUCCAAAUUGUUUCAUCCU
RNA 2: GGGAAUGGAUCCACAUCUACGAAUUCAAAAGGAUGAAACAAUUUGGAGAAGCCAAGAUCGGAAGAGCACACGU
B8: target 2 MT 5'PFS GUG 3'PFS CUA (mixed)
RNA 1: CACCCGUGCAAAAUUGCAGGGGUCUAAAACCUUCUCCAAAUUGUUUCAUCCU
RNA 2: GGGAAUGGAUCCACAUCUACGAAUUCGUGAGGAUGAAACAAUUUGGAGAAGCUAAGAUCGGAAGAGCACACGU
B9: target 2 MT 5'PFS GUG 3'PFS CUG (mixed)
RNA 1: CACCCGUGCAAAAUUGCAGGGGUCUAAAACCUUCUCCAAAUUGUUUCAUCCU
RNA 2: GGGAAUGGAUCCACAUCUACGAAUUCGUGAGGAUGAAACAAUUUGGAGAAGCUGAGAUCGGAAGAGCACACGU
B10: target 2 MT 5'PFS GAC 3'PFS AGA (mixed)
RNA 1: CACCCGUGCAAAAUUGCAGGGGUCUAAAACCUUCUCCAAAUUGUUUCAUCCU
RNA 2: GGGAAUGGAUCCACAUCUACGAAUUCGACAGGAUGAAACAAUUUGGAGAAGAGAAGAUCGGAAGAGCACACGU
B11: target 2 MT 5'PFS UCA 3'PFS AAA (mixed)
RNA 1: CACCCGUGCAAAAUUGCAGGGGUCUAAAACCUUCUCCAAAUUGUUUCAUCCU
RNA 2: GGGAAUGGAUCCACAUCUACGAAUUCUCAAGGAUGAAACAAUUUGGAGAAGAAAAGAUCGGAAGAGCACACGU
B12: target 2 MT 5'PFS CCU 3'PFS CCA (mixed)
RNA 1: CACCCGUGCAAAAUUGCAGGGGUCUAAAACCUUCUCCAAAUUGUUUCAUCCU
RNA 2: GGGAAUGGAUCCACAUCUACGAAUUCCCUAGGAUGAAACAAUUUGGAGAAGCCAAGAUCGGAAGAGCACACGU
B13: target 2 MT 5'PFS AAG 3'PFS AAU (mixed)
RNA 1: CACCCGUGCAAAAUUGCAGGGGUCUAAAACCUUCUCCAAAUUGUUUCAUCCU
RNA 2: GGGAAUGGAUCCACAUCUACGAAUUCAAGAGGAUGAAACAAUUUGGAGAAGAAUAGAUCGGAAGAGCACACGU
B14: target 2 MT 5'PFS CAC 3'PFS AUG (mixed)
RNA 1: CACCCGUGCAAAAUUGCAGGGGUCUAAAACCUUCUCCAAAUUGUUUCAUCCU
RNA 2: GGGAAUGGAUCCACAUCUACGAAUUCCACAGGAUGAAACAAUUUGGAGAAGAUGAGAUCGGAAGAGCACACGU
B15: target 2 MT 5'PFS UAC 3'PFS AUU (mixed)
RNA 1: CACCCGUGCAAAAUUGCAGGGGUCUAAAACCUUCUCCAAAUUGUUUCAUCCU
RNA 2: GGGAAUGGAUCCACAUCUACGAAUUCUACAGGAUGAAACAAUUUGGAGAAGAUUAGAUCGGAAGAGCACACGU
B16: target 2 MT 5'PFS GUG 3'PFS CUU (mixed)
RNA 1: CACCCGUGCAAAAUUGCAGGGGUCUAAAACCUUCUCCAAAUUGUUUCAUCCU
RNA 2: GGGAAUGGAUCCACAUCUACGAAUUCGUGAGGAUGAAACAAUUUGGAGAAGCUUAGAUCGGAAGAGCACACGU
B17: target 2 MT 5'PFS AAA 3'PFS CCG (mixed)
RNA 1: CACCCGUGCAAAAUUGCAGGGGUCUAAAACCUUCUCCAAAUUGUUUCAUCCU
RNA 2: GGGAAUGGAUCCACAUCUACGAAUUCAAAAGGAUGAAACAAUUUGGAGAAGCCGAGAUCGGAAGAGCACACGU
B18: target 2 MT 5'PFS GGU 3'PFS AAU (mixed)
RNA 1: CACCCGUGCAAAAUUGCAGGGGUCUAAAACCUUCUCCAAAUUGUUUCAUCCU
RNA 2: GGGAAUGGAUCCACAUCUACGAAUUCGGUAGGAUGAAACAAUUUGGAGAAGAAUAGAUCGGAAGAGCACACGU
B19: target 2 MT 5'PFS UCA 3'PFS AAG (mixed)
RNA 1: CACCCGUGCAAAAUUGCAGGGGUCUAAAACCUUCUCCAAAUUGUUUCAUCCU
RNA 2: GGGAAUGGAUCCACAUCUACGAAUUCUCAAGGAUGAAACAAUUUGGAGAAGAAGAGAUCGGAAGAGCACACGU
B20: target 2 MT 5'PFS CAC 3'PFS AUC (mixed)
RNA 1: CACCCGUGCAAAAUUGCAGGGGUCUAAAACCUUCUCCAAAUUGUUUCAUCCU
RNA 2: GGGAAUGGAUCCACAUCUACGAAUUCCACAGGAUGAAACAAUUUGGAGAAGAUCAGAUCGGAAGAGCACACGU
B21: target 2 MT 5'PFS UGG 3'PFS CCG (mixed)
RNA 1: CACCCGUGCAAAAUUGCAGGGGUCUAAAACCUUCUCCAAAUUGUUUCAUCCU
RNA 2: GGGAAUGGAUCCACAUCUACGAAUUCUGGAGGAUGAAACAAUUUGGAGAAGCCGAGAUCGGAAGAGCACACGU
B22: target 2 MT 5'PFS GAC 3'PFS AGG (mixed)
RNA 1: CACCCGUGCAAAAUUGCAGGGGUCUAAAACCUUCUCCAAAUUGUUUCAUCCU
RNA 2: GGGAAUGGAUCCACAUCUACGAAUUCGACAGGAUGAAACAAUUUGGAGAAGAGGAGAUCGGAAGAGCACACGU
B23: target 2 MT 5'PFS GUG 3'PFS CUC (mixed)
RNA 1: CACCCGUGCAAAAUUGCAGGGGUCUAAAACCUUCUCCAAAUUGUUUCAUCCU
RNA 2: GGGAAUGGAUCCACAUCUACGAAUUCGUGAGGAUGAAACAAUUUGGAGAAGCUCAGAUCGGAAGAGCACACGU
B24: target 2 MT 5'PFS GAC 3'PFS AGU (mixed)
RNA 1: CACCCGUGCAAAAUUGCAGGGGUCUAAAACCUUCUCCAAAUUGUUUCAUCCU
RNA 2: GGGAAUGGAUCCACAUCUACGAAUUCGACAGGAUGAAACAAUUUGGAGAAGAGUAGAUCGGAAGAGCACACGU
B25: target 2 MT 5'PFS GAC 3'PFS AGC (mixed)
RNA 1: CACCCGUGCAAAAUUGCAGGGGUCUAAAACCUUCUCCAAAUUGUUUCAUCCU
RNA 2: GGGAAUGGAUCCACAUCUACGAAUUCGACAGGAUGAAACAAUUUGGAGAAGAGCAGAUCGGAAGAGCACACGU
B26: target 2 MT 5'PFS AAU 3'PFS UCU (mixed)
RNA 1: CACCCGUGCAAAAUUGCAGGGGUCUAAAACCUUCUCCAAAUUGUUUCAUCCU
RNA 2: GGGAAUGGAUCCACAUCUACGAAUUCAAUAGGAUGAAACAAUUUGGAGAAGUCUAGAUCGGAAGAGCACACGU
B27: target 2 MT 5'PFS AAA 3'PFS CCU (mixed)
RNA 1: CACCCGUGCAAAAUUGCAGGGGUCUAAAACCUUCUCCAAAUUGUUUCAUCCU
RNA 2: GGGAAUGGAUCCACAUCUACGAAUUCAAAAGGAUGAAACAAUUUGGAGAAGCCUAGAUCGGAAGAGCACACGU

As usually defined, the Kd is a measure of binding affinity in units of concentration.

The target in this series is T1, EsCas13d, nuclease-dead. Nature of the series: crRNA (strand 1, pre-loaded); Mg2+; 40 mM Tris-HCl pH 7.5, 150 mM NaCl, 6 mM MgCl2, 1 mM DTT, 0.1% Tween-20, 0.2 mg/ml BSA; 25 C; 10 min per concentration, then washed. The settings on record: tags: His6-TwinStrep-SUMO cleaved; N-terminal SNAP kept (SNAP-Surface 488); label: 3' end held by stalled T7 RNA polymerase.
As to B1, the dissociation constant Kd is 40 ± 4 nM.
The value for B2 was 30 ± 1.9 nM.
The value for B3 was 8.5 ± 0.9 nM; that for B4 was 21.6 ± 2.9 nM.
With B5, binding was characterised by a dissociation constant (Kd) of 6.8 ± 1.4 nM.
The value for B6 was 7.5 ± 1.1 nM; that for B7 was 10 ± 2.5 nM; that for B8 was 8.5 ± 0.7 nM.
With B9, the Kd was 10.1 ± 0.7 nM.
Molecule B10 registered a Kd of 16 ± 6 nM.
Molecule B11 came in with a Kd of 4.2 ± 0.9 nM.
The value for B12 was 1.72 ± 0.2 nM; that for B13 was 3.1 ± 0.5 nM; that for B14 was 1.4 ± 0.21 nM.
The value for B15 was 9.3 ± 2.9 nM; that for B16 was 12.8 ± 1 nM; that for B17 was 5.7 ± 0.9 nM.
The figure for B18 is 12.4 ± 2.2 nM; for B19 it is 6.7 ± 1 nM; for B20 it is 2 ± 0.4 nM.
The molecule B21 registered a Kd of 8.6 ± 0.8 nM.
The figure for B22 is 9.5 ± 0.8 nM; for B23 it is 21.4 ± 2 nM; for B24 it is about 43 nM.
Molecule B25 returned a Kd of 9.3 ± 1.3 nM.
Take B26: binding was characterised by a dissociation constant (Kd) of 10.7 ± 2 nM.
For the molecule B27, the Kd was 34 ± 13 nM.
